# Assay results from US7700353B2, “Compositions and methods for inducing apoptosis in tumor cells” (E-P Therapeutics, Inc., priority 1998, dated 2010).
# B1: rtEa-4: recombinant Ea-4 peptide of rainbow trout pro-IGF-I, 74 amino acid residues (SEQ ID NO: 2) (protein)
# chain: RSVRAQRHTDMPRTPKVSTAVQNVDRGTERRTAQHPDKTKTKKKPLSGHSHPSCKEVHQKNSSRGNTGGRNYRM
# modifications: Oncorhynchus mykiss
# B2: hEb: chemically synthesized human Eb peptide of pro-IGF-I, 77 amino acid residues (SEQ ID NO:1) (peptide, listed as Homo sapiens)
# chain: RSVRAQRHTDMPKTQKYQPPSTNKNTKSQRRKGWPKTHPGGEQKEGTEASLQIRGKKKEQRREIGSRNAECRGKKGK
# Legend:
# [1] = system: cultured BALB/3T3 fibroblast; settings: recombinant peptides; cited from earlier work
# [2] = system: neuroblastoma SK-N-F1 cells; assay: Soft agar colony formation (hEb peptide); assay type: cell-based, human; settings: 3.2 μM
# Method: The effect of hEb-peptide on in vitro colony formation was tested in the presence or absence of either the mature hlGF-I or fetal bovine serum (FIG. 12). Human neuroblastoma SK-N-F1 cells (10^4) were mixed with 0.4% soft agar supplemented with or without hEb peptide (3.2 µM), IGF-I (5 nM) and/or fetal bovine serum (2.5%), as indicated. The cell mixtures were seeded on top of a solidified basal medium DMEM/F12 (1:1) containing 0.5% agar. Medium supplemented with various peptides or serum were overlaid on top of the solidified cell layer followed by a two-week period incubation at 37° C. in a 5% CO2 humidified incubator. The percentage of cells formed into colonies with a diameter greater than 100 µm Macpherson, Tissue culture methods and applications, pp 276-80: N.Y. Academic Press, 1973) were scored in triplicate and subjected to Student t-test analysis. At least three independent assays under each treatment conditions were carried out.
# [3] = system: various human cancer cell lines; assay: Killing of cancer cells in vitro (% cell growth); assay type: cell-based; settings: various amounts, about 48 hours
# Method: FIG. 20 depicts the effects of synthetic hEB-peptide on killing of various human cancer cells. About 1×10^6 cells of cancer cells were seeded in each well of a 96-well plate and various amounts of synthetic hEb-peptide were added as indicated. The cells were cultured for about 48 hours and the % of cell growth was determined.
# About 1×10^6 cells of various human cancer cell lines were seeded in each well of a 96-well culture plate with various amounts of synthetic human Eb-peptide (shEb-peptide). It is specifically contemplated by the inventors that in any of the examples of the preferred embodiments described herein, synthetic or recombinant E domain peptides can be used. After incubation for about 48 hours, the growth of cells in each well was determined and compared to non-hEb-peptide controls.
# [4] = system: SK-N-F1 neuroblastoma cells; assay: Neurite-like process outgrowth / morphological differentiation; assay type: cell-based, human; settings: 2 h
Molecule,mitogenic activity [1],"inhibition of colony formation ([2]; absence of serum and growth factors, colonies >100 μm)",inhibitory effect on anchorage-independent growth ([2]; over all medium conditions),inhibition of colony formation ([2]; presence of FBS (2.5%)),inhibition of colony formation ([2]; presence of hIGF-I (5 nM)),killing of cancer cells [3],Neurite length ([4]; 0.4 μM),Neurite length ([4]; 1.6 μM),Neurite length ([4]; 3.2 μM)
B1,possess mitogenic activity,–,–,–,–,–,–,–,–
B2,–,64%,59-73%,73%,59%,different degrees of killing,30 ± 1.6 μm,33 ± 3.8 μm,33 ± 2.8 μm
